Measured values as given in US20230135471A1, “UBIQUITIN VARIANTS WITH IMPROVED AFFINITY FOR 53BP1” (Integrated DNA Technologies, Inc., priority 2021, published 2023).

molecular target: 53BP1 fragment (a.a. 1221-1718) fused to an adenylate cyclase fragment (two-hybrid) (UniProt Q12888); test: cell-based or functional assay

Row | Substance | Experiment 1 Average Enrichment [log2] | Experiment 1 Rep 1 Enrichment [log2] | Experiment 1 Rep 2 Enrichment [log2] | Experiment 2 Average Enrichment [log2] | Experiment 2 Rep 1 Enrichment [log2] | Experiment 2 Rep 2 Enrichment [log2]
1 | i53 + Q40D two-hybrid fusion (designed binder) | -0.31 | 0.13 | -0.75 | 0.8 | 1.27 | 0.33
2 | i53 + S49M two-hybrid fusion (designed binder) | 0.84 | 1 | 0.69 | 0.77 | 0.57 | 0.98
3 | i53 + E16D two-hybrid fusion (designed binder) | -0.2 | -0.69 | 0.3 | 0.13 | 0.42 | -0.15
4 | i53 + Q31H two-hybrid fusion (designed binder) | 0.19 | 0.66 | -0.29 | 0.11 | 0.13 | 0.09
5 | i53 + L67Y two-hybrid fusion (designed binder) | 0.14 | -0.58 | 0.86 | 0.58 | 0.5 | 0.65
6 | i53 + V26L two-hybrid fusion (designed binder) | 0.55 | 0.4 | 0.69 | 0.55 | 0.52 | 0.58
7 | i53 + S57N two-hybrid fusion (designed binder) | 1.34 | 1.72 | 0.96 | 0.69 | 0.82 | 0.56
8 | i53 + S65N two-hybrid fusion (designed binder) | 0.38 | 0.04 | 0.71 | 0.34 | 0.71 | -0.04
9 | i53 + R74L two-hybrid fusion (designed binder) | 1.11 | 1.35 | 0.88 | 0.85 | 0.95 | 0.76
10 | i53 + L67M two-hybrid fusion (designed binder) | 1.03 | 0.98 | 1.07 | 0.77 | 0.65 | 0.88
11 | i53 + K63M two-hybrid fusion (designed binder) | -0.07 | -0.24 | 0.09 | 0.2 | 0.18 | 0.22
12 | i53 + M1R two-hybrid fusion (designed binder) | 0.1 | -0.01 | 0.22 | 0.21 | 0.11 | 0.3
13 | i53 + R42H two-hybrid fusion (designed binder) | 2.04 | 2.18 | 1.89 | 1.03 | 0.89 | 1.16
14 | i53 + S65D two-hybrid fusion (designed binder) | 0.36 | 0.02 | 0.7 | 0.85 | 0.61 | 1.1
15 | i53 + K48L two-hybrid fusion (designed binder) | 0.05 | 0.05 | 0.04 | 0.2 | 0.28 | 0.12
16 | i53 + M1Y two-hybrid fusion (designed binder) | 2.36 | 2.56 | 2.16 | 1 | 1.18 | 0.81
17 | i53 + M1I two-hybrid fusion (designed binder) | 0.06 | 0.11 | 0.01 | 0 | -0.18 | 0.19
18 | i53 + P38F two-hybrid fusion (designed binder) | 0.67 | 0.91 | 0.43 | 0.81 | 0.48 | 1.13
